Test results from the nanobody polyreactivity screen of Harvey et al. (2022).

Experiment: yeast display, Sf9 membrane polyspecificity reagent, FACS + sequencing; frameworks hold sequencing errors
Method in brief: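 Using colony PCR, genes from sorted yeast display clones were amplified, then sequenced on MiSeq at 2 × 250 and filtered by CDR length. The clones had been stained with 10% biotinylated, detergent-solubilized Sf9 membrane reagent for 1 hour at 4 °C and sorted by FACS into low and high (top ~1%) gates on anti-HA and streptavidin fluorescence. Polyreactivity labels come from the gate of origin.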

Sequence | polyreactivity (PSR sort gate)
QVQLVESGGGLVQAGGSLRLSCAASGRIFRSNAMGWYRQAPRKERELVPAITSSDTSTYYADSVKGRFTISRDNAKNTVYLQMKSLKPEDTAVYYCAADFKPTGTNEPKELDYWGQGTQVTVSS | low polyreactivity
QVQLVESGGCLVQAGGSLRLSCAASGRTFRYYAMGWYRQAPGRERELVAAIRRAGSTTYADSVKGRFTISRDNAKNTVYLQMNSLKPEDTAVYYCIARRYGYGYALDYWGQGTQVTVSS | high polyreactivity
QVQLVESGGGLVQAGGSLRLSCAASGRTFFGYAMGWYIQAPGKERELVAAITWNGGRTYYADSVRGRFTISRDNAKNTVYLQMNSLKPEDTAVYYCAARVGDGVRRYNYWGQGTQVTVSS | high polyreactivity
QVQLVESGGGLVQAGGSLRLSCAASGSISYQNAMGWYRQAPGKERELVAAITSSGGNTYYADSVKGRFTISRDNAKNTVYLQMNSLKPEDTAVYYCNAVLYYDSYLYYYWGQGTQVTVSS | low polyreactivity
QVQLVESGGGLVQAGGSLRLSCAASGSIFLLYAMGWYRQAPGKERELVAAISLSTGNTYYADSVKGRFTISRDNAKNTVYLQMNSLKPEDTAVYYCAAEDYWSAYYWGQGTQVTVSS | high polyreactivity
QVQLVESGVGLVQAGGSLRLSCSASGIIFDDYAMGWYRQAPGKERELVAAISRRGGSTYYADSVKGRFTISRDNAKNTVYLQMNSLKPEDTAVYYCAATTRTYSLYNYWGQGTHVTVSS | high polyreactivity
QVQLVESGGGLVQAGGSLRLSCAASGSIFPYYAMGWYRQAPGKERELVAAITYIGGDTYYADSVKGRFTISRDNAKNTVYLQMNSLKPEDTAVYYCAAELSWRQYDYEYWGQGTQVTVSS | low polyreactivity
QVQLVESGGGLVQAGGSLRLSCAASGNIFFTYAMGWYIQEPGKERELVAAITSGGRTYYADSVKGRFTISRDNAKNTLHLQMNSLKPEDTAVYYCAAYYKYLGYGYWGQGTQVTVSS | high polyreactivity
QVQLVESGGGLVQAGGSLRLSCAASGRIFLYYNMGWYRQAPGKERELVADITWRGGSTYYADSVKGRFTISRDNAKNTVYLQMNSLKPEDTAVYYCNAVSVSSKRSDYWGQGTQVTVSS | low polyreactivity
QVQLVESGGGLVQAGGSLRLSCAASGITFYRYAMGWYRQEPGKERELVAAISRSGGSTYYADSVKGRFTISRDNAKNTVYLQMNSLKPQDTEVYYCADYILGNRVGYDYWGQGTQVTVSS | high polyreactivity
QVQLVESGGGLVQAGGSLRLSCAASGRIFLYAMGWYRQAPGKERELVAAINRGGSTYYADSVKGRFTISRDNAKNTVYLEMNSLKPEDTAVYYCAAKRLTCRQHDYWGQGTQVTVSS | high polyreactivity
QVQLVESGGGLVQAGGSLRLSCAASGLTSVRYAMGWYRQAPGKERELVARISTGGSTYYADSVKGRFTISRDNAKNTVYLQMNSLKPEDTAVYYCNKGYARRYASGYDYWGQGTQVTVSS | high polyreactivity
QVQLVESGGGLVQAGGSLRLSCAASGFIFVDNAMGWYRQAPGKERELVAAITYRGGSTYYADSVKGRFTISRDNAKNTVYLQMNSLKPEDTAVYYCNADYGDTFEYDYWGQGTQVTVSS | low polyreactivity
QVQLVESGGGLVQARGSLRLSCAASGGIFDTYVMGWYRQAPGKERELVAAISCSGSTTYADSVKGRFTISRDNAKYTVYLQMNSLKPEDTAVYYCNADYSTIWRYDYWGQGTQVTVSS | low polyreactivity
QVQLVESGGGLVQAGGSLRLSCAASGLTFNVYAMGWYRQAPGKERELVASITKRGGSTYYADSVKGRFTISRDNAKNTVYLQMNSLKPEDTAVYYCAADGLTGSIYRATGYYWGQGTQVTVSS | high polyreactivity
QVHLVESGGGLVQAGGSLRLSCAASGRTFVPYVMGWYRQAPGKERELVATINWSGGSTYYADSVKGLFTISRDNAKNTVYLQMNSLKPEDTAVYYCAARYYSDWFYYLFRYDYLGQGTQVTVSS | low polyreactivity
QVQLEDSGGGLVQAGGSLRLSCAASGRIFTRYAMGWYRQAPGKERELVAVITRSGGSTYYADSVKGRFTISRDNAKNTVYLQMNSLKPEDTAVYYCAARYYWSVYADQGDYWGQGTQVTVSS | low polyreactivity
QVQLVESGGGLVQVGGSLRLSCAASGRTFYDYAMGWYRQAPGKERELVAAITWSGGSTYYADSVKGRFTISRDNAKNTVYLQMNSLKPEDTAVSYCAKGGSYQSRYDYWGQGTQVTVSS | low polyreactivity
QVQLVESGGGLVQAGGSLRLSCAASGNIFATYAMGWYRQAPGKERELVAAIRSGGNTNYADSVKGRFTISRDNAKNTVYLQMNSLKPEDTAVYYCNAYKIFYGYIRYNYWGQGTQVTVSS | high polyreactivity
QVQLVESGGGLVQAGGSLRLSCAASGFTFASYVMGWYRQAPGKERELVASISWSGGRTYYADSVKGRFTISRDNAKNTVYLQMNSLKPEDTAVYYCNVLVTRYSPWFLYNYWGLGTQVTVSS | high polyreactivity
QVQHVDSGGGLVQAGGSLRLSCAASGFIFSYYAMGWYRQAPVKERELVAGISYNGDRTYYADSVKGRFTISRDNAKNTFYLQMKSLKPEDTAVYYCNVVWVLGGWYDLEYDYWGQGTQVTVSS | high polyreactivity
QVQLVESGGRLVQAGGSLRLSCAASGITFVYYAMGWYRQAPGKERELVASISSGGSTYYADSVKGRFTISRDNAKNTVYLQMNSLKPEDTAVYDCAAPTGWYPAYGEYEYWGQGTQVTVSS | low polyreactivity

Sequence | polyreactivity (PSR sort gate)
QVQLEESGGGLVQAGGRLRLSCAASGIISAHYAMGWYRQAPGKERELVAAISSSGGSTYYADSVKGRFTISRDNAKNTVYLQMNSLKPEDTAVYYCNAEFYWGYDYWGQGTQVTVSS | low polyreactivity
QVQLVESGGGLVQAGGSLRLSCAASGSIYDPYAMGWYRQAPGKERELVAAINGGSGSTFYADSVKGRFTISRDNAKNTVYFQMNSLKPEDTAVYYCAAKIWRYSPSYYPEPRGDYWGQGTQVNVSS | low polyreactivity
QVQLVESGGGLVQAGGSLRLSCAASGRIFRGYAMGWYRQAPGTERELVAAITRGGSTKYADSVKGRFTISRDNAKNTVYLQMNSLKPEDTAVYYCAKDSYPYVPLYRSRSLYGYWGQGTQVTVSS | high polyreactivity
QVQLVESGGGLVQAGGSLRLSCAASGITFQRYAMGWYRQAPGKERELVAAISTNGGTTYYADSVKGRFTISRDNAKNTVYLQMNSLKPEDTAVYFCNAESGYVYYIRYNYWGQGTQVTVSS | high polyreactivity
QVHLVDSGGGLVQAGGSLRLSCAASGRTSIRYAMAWYRQAPGKERELVAAITYAAGSTYYADSVTGRFTISRDNAKNTVYLQMNSLKPEDTAVYYCNARVYYHYDFWGQGTQVTVSS | high polyreactivity
QVQLVESGGGLVQAGGSLRLSCAASGRIVRYYTMGWYRQAPGKEREFVAAITLSGGRTYYADSVKGRFTISRDNAKNTVYLQMNSLKPEDTAVYYCAKRYVWGDKRYWQGYDYWGQGTQVSVSS | high polyreactivity
QFQLVESGGGLVHAGGSLRLSCAASGITFQWNSMGWYRQAPGKERELVAVISSDGRTYYADSVKGRFTISRDNAKYTVYLQMNSLKPEDTAVYYCNADRSVIHRGYIWQPGRNDYWGHGTQVTVSS | low polyreactivity
QVQLVESGGGLDQAGGSLRLICAASGRIFDVNAMGWYRQAPGKERELVAAISDSGGSTYYADSVKGRFTISRDNAKNTVYLQMNSLKPEDTAVYYCNANTPSLKRSTFNYWGQGTQVTVSS | low polyreactivity
QVQLVESWGGLVQAGGSLHLSCAASGSTFQEYAMGWYRQAPGKERELVASIRWSGGRTYYADSVKGRFTISRDNAKNTVYLQMNSLKPEDTAFYYCAAGQWWYQVRFDYWGQGTQVTVSS | low polyreactivity
QVQLVESGGGLVQAGGSLRLSCAASGRIFSWYAMGWYRQAPGKEREMVARITTRGGNTYYADSVKGRFTISRDNAKNTVFLQMNSLKPEDTAVYYCAARHPYPIYDYWGQGTQVTVSS | low polyreactivity
QVQLVESGGGLVQAGGSLRLSCAASGSTFRPYAMGWYRQAPGTERELVAAISWSGGRTYYADSVKGRFTISRDNAKNNVYLQMNSLKPEDTAVYYCTRAGRQPKNTYDYWGQGTQVTVSS | high polyreactivity
QVQLVESGGGLVQAGGSLRLSCAASGSIFRAYAMGWYRQAPGKERELVAGITKSGGSTYYADSVKGRFTISRDNAKNTVYLQMNSLKAEDTAVYYCAAYRSRTYGYWGQGTQVTVSS | high polyreactivity
QVQLVESVGGLVQAGGSLRISCAASGSIFAINAMGWYRQAPVKERELVAAIRTAGRTYYADSVKGRFTISRDNAKNTVYLQMNSLKPEDSSVYDCNDGGKWIGSDYWGQGTQVTVSS | high polyreactivity
QVQLVESGGGLVQAGGSLRLSCAASGLILYSYAMGWYRQAPGKERELVADISSGGITNYADSVKGRFTISRDNAKNTVYLQMNSLKPEDTAFYYCNADSYGGNLYIWEYYYWGQGTQVTVSS | low polyreactivity
QVQLVESGGGLVQAGGSLRLSCAASGLIFPDYDMGWYIQAPGKERELVAAISIGGVSTYYADSVKGRFTISRDNAKNTVYLQMNSLKPEDTAVYYCAAYYSYVYYVGDSDDYWGQGTQVTVSS | low polyreactivity
QVQLVESGGGLVQAGGSLRLSCAASGFTFRQYAMGWYRQAPGKEREFFADITFSGDNTRYADSVKGRFTISRDNAKNTVYLQMNSLKPEDTGVYYCNADYLVSWLQFDYWGQGTQVTVSS | low polyreactivity
QVQLVESGGGLVQAGGSLRLSCAASGRIFVTYAMGWYRQAPGKERELVASISRSGGRTYYADSVKGRFTISRDNAKNTVYLQMNSLKPEDTAVYYCNADQEGYQQYFYLGSPYDYWGQGTQVTVSS | low polyreactivity
QVQLEESGGGLVQAGGSLRLSCAASGRTFTVYAMGWYRQAPGKERELVAGIRRGDSTYYADSVKGRFTISRDNAKNTVYLQMNSLKPEDTAVYYCAARPAGYGHYKYYYWGQGTQVTVSS | high polyreactivity
QVQLVESGGGLVQAGGSIRLSCAASGSSFVSYAMGWYRQAPGKERELVATISWRGGSTYYADSVKGRFTISRDNAMNTVYLQMNSLKTEDTAVYYCAADVWHSQYYYGYEYWGQGTQVTVSS | low polyreactivity
QVQLVESGGGLVQAGGSLRLSCAASGFTFFIYAMGWYRQAPGKERELVAAISWRGDRTYYADSVKGRFTISRDNAKNTVYLQMNSMKPEDTAVYYCAKSVWRRVYYARYDDRHNYWGQGTQVTVSS | high polyreactivity
QVQLVESGGGIVQAGGSLRLSCAGSGIIFWYYAMGWYRQAPGKERELVAAISQSGGRTYYADSVKGRFTISRDNAKNTVYLQMNSLKPEDTAVYYCAAGLVYRWSTTPRRLYYYWGQGTQVTVSS | high polyreactivity
